The text below walks through data of PMC3581772, “Protease-activated alpha-2-macroglobulin can inhibit amyloid formation via two distinct mechanisms” (Febs Letters, 2013).

The series deals with the molecule itself. As to the kind of experiment: thioflavin T fluorescence of fibril formation; I59T lysozyme 6.8 μM, 0.1 M citrate buffer pH 5.0, 25 μM ThT, 60 °C, with stirring; self-association into fibrils.

B1: I59T human lysozyme (natural protein, UniProt P61626 19-148, looked up)
chain: KVFERCELARTLKRLGMDGYRGISLANWMCLAKWESGYNTRATNYNAGDRSTDYGIFQTNSRYWCNDGKTPGAVNACHLSCSALLQDNIADAVACAKRVVRDPQGIRAWVAWRNRCQNRDVRQYVQGCGV
notes: human lysozyme, non-natural variant I59T; monomer 14.7 kDa; also called I59T lysozyme; source: expressed and purified as previously described [16]
For B1, the binding result is on record as “binds”.
